Like-named read-outs stand apart in the source and are kept apart here. Values belong to the substance of their own block, whether it stands above or below them.
Legend:
Wild type CXCL8 (human) [1] = experiment: SPR
Wild type CXCL8 (human) [2] = experiment: SPR; remark: listed apart in the source
[3] = biological target: Isolated Link module of human TSG-6 (Link_TSG6) (human) (UniProt P98066); experiment: SPR
[4] = biological target: Isolated Link module of human TSG-6 (Link_TSG6) (human) (UniProt P98066); experiment: SPR; remark: listed apart in the source
Wild type CXCL8 (human) [5] = biological target: Wild type CXCL8 (human)
CXCL8 (Homo sapiens) = CXCL8 (Homo sapiens) (UniProt P10145); conditions: cited from earlier work
CXCR2 (Homo sapiens) = CXCR2 (Homo sapiens) (UniProt P25025); conditions: cited from earlier work
CXCR2 (Homo sapiens), sequence (P25025 whole entry): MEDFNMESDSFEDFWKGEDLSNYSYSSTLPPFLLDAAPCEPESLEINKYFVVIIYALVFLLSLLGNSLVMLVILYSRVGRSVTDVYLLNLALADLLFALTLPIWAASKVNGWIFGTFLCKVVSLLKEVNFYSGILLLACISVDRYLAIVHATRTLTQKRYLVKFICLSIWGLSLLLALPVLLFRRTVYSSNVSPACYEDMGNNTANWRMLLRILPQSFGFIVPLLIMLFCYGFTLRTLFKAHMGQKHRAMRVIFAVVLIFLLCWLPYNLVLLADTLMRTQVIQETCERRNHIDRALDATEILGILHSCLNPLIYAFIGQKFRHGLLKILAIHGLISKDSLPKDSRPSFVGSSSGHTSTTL

Isolated Link module of human TSG-6 (Link_TSG6) (human), sequence (P98066 36-129): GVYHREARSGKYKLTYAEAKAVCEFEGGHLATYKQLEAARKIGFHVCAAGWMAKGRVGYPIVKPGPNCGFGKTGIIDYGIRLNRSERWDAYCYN
Full-length, wild type recombinant human TSG-6, sequence (P98066 18-277): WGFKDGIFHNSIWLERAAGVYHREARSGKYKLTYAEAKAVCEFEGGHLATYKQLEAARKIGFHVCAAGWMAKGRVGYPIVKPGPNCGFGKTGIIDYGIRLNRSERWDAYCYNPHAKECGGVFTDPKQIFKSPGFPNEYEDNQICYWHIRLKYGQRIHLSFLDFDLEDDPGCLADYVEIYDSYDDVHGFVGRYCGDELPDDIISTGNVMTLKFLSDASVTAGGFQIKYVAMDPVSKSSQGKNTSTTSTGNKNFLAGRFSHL
CXCL8, sequence (P10145 28-99): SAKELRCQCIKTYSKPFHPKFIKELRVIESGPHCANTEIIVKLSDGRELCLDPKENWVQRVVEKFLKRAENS
CXCL8 (Homo sapiens), sequence (P10145 28-99): as above
Isolated Link module of human TSG-6 (Link_TSG6), sequence (P98066 36-129): as the sequence (P98066 36-129) above
Evasin-3, sequence (P0C8E8 21-86): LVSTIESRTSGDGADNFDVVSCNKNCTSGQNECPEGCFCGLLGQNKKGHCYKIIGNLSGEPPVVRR

Kd (Wild type CXCL8 (human) [1]): 20 nM | Kd (Wild type CXCL8 (human) [2]): 74 nM
Substance: Full-length, wild type recombinant human TSG-6 (from UniProt P98066 18-277) (natural protein)

Kd [3]: 21 nM | koff [3]: 0.0011 s⁻¹ | Kd [4]: 6 nM | koff [4]: 0.00032 s⁻¹
Substance: Wild type CXCL8 (ligand)

inhibition of CXCL8-induced neutrophil trans-migration (Transwell) (Wild type CXCL8 (human) [5]): 10 nM
Substance: Isolated Link module of human TSG-6 (Link_TSG6) (from UniProt P98066 36-129) (domain or fragment)

Substance: Evasin-3 (from UniProt P0C8E8)
Kd (CXCL8 (Homo sapiens)): 1 nM

Substance: CXCL8 (from UniProt P10145)
Kd (CXCR2 (Homo sapiens)): 1 nM
